Test results from publication PMC3713453 (Science signaling, 2013).

What was measured:
Experiment in all cases: ITC
[1] = biological target: Gal8_(C-CRD) I312V (human, UniProt O00214-2 228-359, I312V)
[2] = biological target: Gal8_(C-CRD) V244A (human, UniProt O00214-2 228-359, V244A)
[3] = biological target: Gal8_(C-CRD) I312L (human, UniProt O00214-2 228-359, I312L)
[4] = biological target: Gal8_(C-CRD) K246A (human, UniProt O00214-2 228-359, K246A)
[5] = biological target: Gal8_(C-CRD) H328A (human, UniProt O00214-2 228-359, H328A)
Sequence of Gal8_(C-CRD) H328A (O00214 186-317 H286A): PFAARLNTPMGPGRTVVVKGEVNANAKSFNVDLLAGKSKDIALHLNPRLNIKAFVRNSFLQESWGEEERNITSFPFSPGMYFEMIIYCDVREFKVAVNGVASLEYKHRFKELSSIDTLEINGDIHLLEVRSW

Sequence of Gal8_(C-CRD) I312L (O00214 186-317 I270L): as the sequence (O00214 186-317 H286A) above, with I85L, A101H counted along it
Sequence of Gal8_(C-CRD) I312V (O00214 186-317 I270V): as the sequence (O00214 186-317 H286A) above, with I85V, A101H counted along it
Sequence of Gal8_(C-CRD) V244A (O00214 186-317 V202A): as the sequence (O00214 186-317 H286A) above, with V17A, A101H counted along it
Sequence of Gal8_(C-CRD) K246A (O00214 186-317 K204A): as the sequence (O00214 186-317 H286A) above, with K19A, A101H counted along it

- binding result [1]: binds
- binding result [2]: binds
- binding result [3]: binds
- binding result [4]: binds
- fold reduction of affinity against wild-type Gal8_(C-CRD) [5]: 8 fold
Binder: ARQNPGLAYGNPYS [NDP52_(368-381) peptide]
